# Assay results from article PMC10786891, “Massively parallel profiling of RNA-targeting CRISPR-Cas13d”.
# Numbering of substitutions follows the chain as printed. In names and notes the source's numbering stands.
# T1: EsCas13d, nuclease-dead (Eubacterium siraeum, UniProt B0MS50, R295A;H300A;R849A;H854A)
# T1 sequence: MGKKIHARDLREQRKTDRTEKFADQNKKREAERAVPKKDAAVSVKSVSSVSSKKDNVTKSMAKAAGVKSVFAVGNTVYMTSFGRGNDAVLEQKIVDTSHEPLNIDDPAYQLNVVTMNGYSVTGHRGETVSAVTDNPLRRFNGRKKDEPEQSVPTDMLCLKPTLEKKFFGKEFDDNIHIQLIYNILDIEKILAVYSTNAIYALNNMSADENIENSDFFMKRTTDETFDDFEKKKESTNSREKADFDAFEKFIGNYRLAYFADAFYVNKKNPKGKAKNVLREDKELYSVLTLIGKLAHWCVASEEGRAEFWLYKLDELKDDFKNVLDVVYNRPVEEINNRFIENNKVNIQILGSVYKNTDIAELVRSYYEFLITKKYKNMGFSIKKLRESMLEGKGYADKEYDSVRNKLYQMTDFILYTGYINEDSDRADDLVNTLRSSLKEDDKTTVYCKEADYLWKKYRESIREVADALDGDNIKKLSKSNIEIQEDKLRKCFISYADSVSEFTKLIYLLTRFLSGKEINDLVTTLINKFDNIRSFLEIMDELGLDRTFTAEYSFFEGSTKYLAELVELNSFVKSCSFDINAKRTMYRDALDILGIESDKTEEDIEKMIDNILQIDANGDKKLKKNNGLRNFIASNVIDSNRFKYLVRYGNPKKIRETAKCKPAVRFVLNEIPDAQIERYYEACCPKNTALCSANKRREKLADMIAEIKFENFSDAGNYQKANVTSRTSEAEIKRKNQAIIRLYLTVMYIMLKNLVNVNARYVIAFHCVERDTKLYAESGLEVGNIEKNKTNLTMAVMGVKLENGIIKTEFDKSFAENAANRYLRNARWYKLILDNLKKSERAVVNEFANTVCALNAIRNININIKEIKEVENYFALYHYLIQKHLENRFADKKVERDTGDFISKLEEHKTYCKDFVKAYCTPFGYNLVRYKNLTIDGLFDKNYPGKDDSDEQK
# B1: target 1 MT 5'PFS UAG 3'PFS CUA (mixed)
# RNA 1: CACCCGUGCAAAAAUGCAGGGGUCUAAAACUGAGCGGAUAACCUCUCUAUGG
# RNA 2: GGGAAUGGAUCCACAUCUACGAAUUCUAGCCAUAGAGAGGUUAUCCGCUCACUAAGAUCGGAAGAGCACACGU
# B2: target 1 MT 5'PFS CCA 3'PFS AUA (mixed)
# RNA 1: B1 RNA 1
# RNA 2: B1 RNA 2 with U27C, A28C, G29A, C52A
# B3: target 1 MT 5'PFS CAA 3'PFS AAU (mixed)
# RNA 1: B1 RNA 1
# RNA 2: B1 RNA 2 with U27C, G29A, C52A, U53A, A54U
# B4: target 1 MT 5'PFS GUG 3'PFS UUU (mixed)
# RNA 1: B1 RNA 1
# RNA 2: B1 RNA 2 with U27G, A28U, C52U, A54U
# B5: target 1 MT 5'PFS GUG 3'PFS UUC (mixed)
# RNA 1: B1 RNA 1
# RNA 2: B1 RNA 2 with U27G, A28U, C52U, A54C
# B6: target 1 MT 5'PFS CCA 3'PFS UCC (mixed)
# RNA 1: B1 RNA 1
# RNA 2: B1 RNA 2 with U27C, A28C, G29A, C52U, U53C, A54C
# B7: target 1 C2G,C6G (mixed)
# RNA 1: B1 RNA 1
# RNA 2: B1 RNA 2 with U27G, A28U, G29A, C46G, C50G, U53C, A54G
# B8: target 1 MT 5'PFS GGA 3'PFS UAA (mixed)
# RNA 1: B1 RNA 1
# RNA 2: B1 RNA 2 with U27G, A28G, G29A, C52U, U53A
# B9: target 1 MT 5'PFS AAC 3'PFS AUG (mixed)
# RNA 1: B1 RNA 1
# RNA 2: B1 RNA 2 with U27A, G29C, C52A, A54G
# B10: target 1 MT 5'PFS CCA 3'PFS UCA (mixed)
# RNA 1: B1 RNA 1
# RNA 2: B1 RNA 2 with U27C, A28C, G29A, C52U, U53C
# B11: target 1 MT 5'PFS GUG 3'PFS CAG (mixed)
# RNA 1: B1 RNA 1
# RNA 2: B1 RNA 2 with U27G, A28U, U53A, A54G
# B12: target 1 MT 5'PFS UUU 3'PFS ACU (mixed)
# RNA 1: B1 RNA 1
# RNA 2: B1 RNA 2 with A28U, G29U, C52A, U53C, A54U
# B13: target 1 MT 5'PFS GAG 3'PFS AAG (mixed)
# RNA 1: B1 RNA 1
# RNA 2: B1 RNA 2 with U27G, C52A, U53A, A54G
# B14: target 1 MT 5'PFS UUU 3'PFS ACC (mixed)
# RNA 1: B1 RNA 1
# RNA 2: B1 RNA 2 with A28U, G29U, C52A, U53C, A54C
# B15: target 1 MT 5'PFS GUG 3'PFS UUA (mixed)
# RNA 1: B1 RNA 1
# RNA 2: B1 RNA 2 with U27G, A28U, C52U
# B16: target 1 MT 5'PFS AAC 3'PFS AUC (mixed)
# RNA 1: B1 RNA 1
# RNA 2: B1 RNA 2 with U27A, G29C, C52A, A54C
# B17: target 1 MT 5'PFS UCC 3'PFS UCA (mixed)
# RNA 1: B1 RNA 1
# RNA 2: B1 RNA 2 with A28C, G29C, C52U, U53C
# B18: target 1 C4U,C7U (mixed)
# RNA 1: B1 RNA 1
# RNA 2: B1 RNA 2 with U27G, A28U, G29A, C45U, C48U, U53C, A54G
# B19: target 1 MT 5'PFS CUC 3'PFS CUG (mixed)
# RNA 1: B1 RNA 1
# RNA 2: B1 RNA 2 with U27C, A28U, G29C, A54G
# B20: target 1 MT 5'PFS CCA 3'PFS UCU (mixed)
# RNA 1: B1 RNA 1
# RNA 2: B1 RNA 2 with U27C, A28C, G29A, C52U, U53C, A54U
# B21: target 1 MT 5'PFS CCA 3'PFS AUG (mixed)
# RNA 1: B1 RNA 1
# RNA 2: B1 RNA 2 with U27C, A28C, G29A, C52A, A54G
# B22: target 1 G15C,G17U (mixed)
# RNA 1: B1 RNA 1
# RNA 2: B1 RNA 2 with U27G, A28U, G29A, G35U, G37C, U53C, A54G
# B23: target 1 MT 5'PFS UAG 3'PFS CUC (mixed)
# RNA 1: B1 RNA 1
# RNA 2: B1 RNA 2 with A54C
# B24: target 1 MT 5'PFS UCC 3'PFS UCU (mixed)
# RNA 1: B1 RNA 1
# RNA 2: B1 RNA 2 with A28C, G29C, C52U, U53C, A54U
# B25: target 1 MT 5'PFS GUG 3'PFS CAC (mixed)
# RNA 1: B1 RNA 1
# RNA 2: B1 RNA 2 with U27G, A28U, U53A, A54C
# B26: target 1 MT 5'PFS CCA 3'PFS AUU (mixed)
# RNA 1: B1 RNA 1
# RNA 2: B1 RNA 2 with U27C, A28C, G29A, C52A, A54U
# B27: target 1 MT 5'PFS GUG 3'PFS GUU (mixed)
# RNA 1: B1 RNA 1
# RNA 2: B1 RNA 2 with U27G, A28U, C52G, A54U
# B28: target 1 MT 5'PFS GAG 3'PFS AAU (mixed)
# RNA 1: B1 RNA 1
# RNA 2: B1 RNA 2 with U27G, C52A, U53A, A54U
# B29: target 1 insA 3' of 13,insA 3' of 4 (mixed)
# RNA 1: B1 RNA 1
# RNA 2: GGGAAUGGAUCCACAUCUACGAAUUCGUACCAUAGAGAGAGUUAUCCGCAUCACCGAGAUCGGAAGAGCACACGU
# B30: target 1 MT 5'PFS GUG 3'PFS CAU (mixed)
# RNA 1: B1 RNA 1
# RNA 2: B1 RNA 2 with U27G, A28U, U53A, A54U
# B31: target 1 MT 5'PFS UCC 3'PFS UCG (mixed)
# RNA 1: B1 RNA 1
# RNA 2: B1 RNA 2 with A28C, G29C, C52U, U53C, A54G
# B32: target 1 MT 5'PFS CUC 3'PFS CUA (mixed)
# RNA 1: B1 RNA 1
# RNA 2: B1 RNA 2 with U27C, A28U, G29C
# B33: target 1 MT 5'PFS GGA 3'PFS UAC (mixed)
# RNA 1: B1 RNA 1
# RNA 2: B1 RNA 2 with U27G, A28G, G29A, C52U, U53A, A54C
# B34: target 1 MT 5'PFS AAC 3'PFS AUA (mixed)
# RNA 1: B1 RNA 1
# RNA 2: B1 RNA 2 with U27A, G29C, C52A
# B35: target 1 insG 3' of 9,insG 3' of 1 (mixed)
# RNA 1: B1 RNA 1
# RNA 2: B29 RNA 2 with A40G, G41U, U43A, A44G, A50U, U51C, C52A, A53G
# B36: target 1 MT 5'PFS GGA 3'PFS UAG (mixed)
# RNA 1: B1 RNA 1
# RNA 2: B1 RNA 2 with U27G, A28G, G29A, C52U, U53A, A54G
# B37: target 1 MT 5'PFS GUG 3'PFS UUG (mixed)
# RNA 1: B1 RNA 1
# RNA 2: B1 RNA 2 with U27G, A28U, C52U, A54G
# B38: target 1 MT 5'PFS GUG 3'PFS CAA (mixed)
# RNA 1: B1 RNA 1
# RNA 2: B1 RNA 2 with U27G, A28U, U53A
# B39: target 1 MT 5'PFS GGA 3'PFS UAU (mixed)
# RNA 1: B1 RNA 1
# RNA 2: B1 RNA 2 with U27G, A28G, G29A, C52U, U53A, A54U
# B40: target 1 MT 5'PFS UCC 3'PFS UCC (mixed)
# RNA 1: B1 RNA 1
# RNA 2: B1 RNA 2 with A28C, G29C, C52U, U53C, A54C
# Biological target: T1, EsCas13d, nuclease-dead
# Experiment: crRNA (strand 1, pre-loaded); Mg2+; 40 mM Tris-HCl pH 7.5, 150 mM NaCl, 6 mM MgCl2, 1 mM DTT, 0.1% Tween-20, 0.2 mg/ml BSA; 25 C; 10 min per concentration, then washed
# Conditions: tags: His6-TwinStrep-SUMO cleaved; N-terminal SNAP kept (SNAP-Surface 488); label: 3' end held by stalled T7 RNA polymerase
row,Binder,Kd [nM]
1,B1,22.5 ± 4.5
2,B2,6.1 ± 1.7
3,B3,~25.5
4,B4,9.05 ± 0.495
5,B5,11.6 ± 0.9
6,B6,~4.5
7,B7,4.46 ± 0.23
8,B8,21.9 ± 4.9
9,B9,~60
10,B10,6.55 ± 1.8
11,B11,22.8 ± 2
12,B12,21.2 ± 4.1
13,B13,~60
14,B14,~46.5
15,B15,10.6 ± 0.65
16,B16,~25
17,B17,~20
18,B18,29 ± 5
19,B19,~27
20,B20,4.9 ± 2.45

row,Binder,Kd [nM]
1,B21,~8.15
2,B22,90 ± 40
3,B23,29.5 ± 12
4,B24,23 ± 8
5,B25,26.6 ± 2.8
6,B26,2.62 ± 0.595
7,B27,17.9 ± 2.75
8,B28,39 ± 11.5
9,B29,3.4 ± 0.5
10,B30,18.4 ± 2
11,B31,20.6 ± 7.75
12,B32,~39
13,B33,14 ± 6
14,B34,22 ± 8.5
15,B35,19.2 ± 2.3
16,B36,17.6 ± 4.05
17,B37,7.86 ± 0.47
18,B38,31 ± 4.5
19,B39,11.7 ± 1.5
20,B40,12.1 ± 1.9
